How the values were obtained:
[1] = target: T1, human EpCAM-hFc (in-house production) (human, UniProt P16422 24-265, limits assumed); experiment: ELISA, antigen coated at 1 ug/ml
T1 construct: not shown: human Fc
T1 sequence (looked up): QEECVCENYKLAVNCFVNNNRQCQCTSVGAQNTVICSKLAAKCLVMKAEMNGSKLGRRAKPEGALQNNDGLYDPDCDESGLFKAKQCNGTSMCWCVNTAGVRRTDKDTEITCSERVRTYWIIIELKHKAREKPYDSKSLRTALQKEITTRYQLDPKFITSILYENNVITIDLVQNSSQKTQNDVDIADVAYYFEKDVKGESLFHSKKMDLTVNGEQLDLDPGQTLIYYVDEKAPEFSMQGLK
Protocol: (§1) A similar protocol was used as described in section 1.2.1 in which maxisorp plates were coated with 1 μg/ml of recombinant human MSLN-His-Avi, human CEACAM-5-His-Fc (Sino Biological, 1077-H03H), human E-Cadherin (R&D systems, 8505-EC), human Thrombomodulin (Peprotech, 100-58) or human EpCAM-hFc (in-house production). Binding of the anti-MSLN mAbs, tested at a concentration range of 0.02 to 1000 nM (3-fold dilutions) was detected using anti-human Fab-HRP (Sigma, A0293). Positive controls for the respective molecules included human EpCAM antibody (clone 2G8 from patent no. U.S. Pat. No. 8,236,308 B2) CEACAM-5 antibody (clone hMN15 from patent no. U.S. Pat. No. 8,771,690 B2), human E-Cadherin antibody, mouse IgG2b clone 180215 (R&D systems, MAB1838), human Thrombomodulin antibody, mouse IgG1, clone 501733 (R&D systems, MAB3947). The latter two were detected using goat anti mouse Fc-HRP (Sigma, A9309) as secondary mAb.

[2] = target: T2, human CEACAM-5-His-Fc (Sino Biological, 1077-H03H) (human, UniProt P06731 35-685); experiment: ELISA, antigen coated at 1 ug/ml
T2 construct: not shown: His tag and Fc
T2 sequence (looked up): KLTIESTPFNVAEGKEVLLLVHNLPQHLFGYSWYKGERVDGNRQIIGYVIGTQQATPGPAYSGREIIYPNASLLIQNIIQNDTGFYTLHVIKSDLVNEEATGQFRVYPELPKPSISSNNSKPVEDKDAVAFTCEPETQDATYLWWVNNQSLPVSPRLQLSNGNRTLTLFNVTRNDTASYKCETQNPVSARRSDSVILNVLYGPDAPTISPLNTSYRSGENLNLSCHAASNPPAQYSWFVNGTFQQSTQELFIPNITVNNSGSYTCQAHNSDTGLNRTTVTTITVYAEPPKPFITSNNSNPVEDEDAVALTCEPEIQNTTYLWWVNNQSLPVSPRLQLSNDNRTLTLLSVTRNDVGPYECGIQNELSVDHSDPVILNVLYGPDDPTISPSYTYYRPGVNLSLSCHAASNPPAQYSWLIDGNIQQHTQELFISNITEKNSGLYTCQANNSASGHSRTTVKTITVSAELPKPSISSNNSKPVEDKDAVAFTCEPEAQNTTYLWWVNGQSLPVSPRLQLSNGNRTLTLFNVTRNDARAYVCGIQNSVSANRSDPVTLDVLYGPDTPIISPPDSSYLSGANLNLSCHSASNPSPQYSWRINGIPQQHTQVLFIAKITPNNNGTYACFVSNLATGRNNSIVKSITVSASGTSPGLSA
Protocol: as §1

[3] = target: T3, human E-Cadherin (R&D systems, 8505-EC) (human, UniProt P12830 155-707); experiment: ELISA, antigen coated at 1 ug/ml
T3 sequence (looked up): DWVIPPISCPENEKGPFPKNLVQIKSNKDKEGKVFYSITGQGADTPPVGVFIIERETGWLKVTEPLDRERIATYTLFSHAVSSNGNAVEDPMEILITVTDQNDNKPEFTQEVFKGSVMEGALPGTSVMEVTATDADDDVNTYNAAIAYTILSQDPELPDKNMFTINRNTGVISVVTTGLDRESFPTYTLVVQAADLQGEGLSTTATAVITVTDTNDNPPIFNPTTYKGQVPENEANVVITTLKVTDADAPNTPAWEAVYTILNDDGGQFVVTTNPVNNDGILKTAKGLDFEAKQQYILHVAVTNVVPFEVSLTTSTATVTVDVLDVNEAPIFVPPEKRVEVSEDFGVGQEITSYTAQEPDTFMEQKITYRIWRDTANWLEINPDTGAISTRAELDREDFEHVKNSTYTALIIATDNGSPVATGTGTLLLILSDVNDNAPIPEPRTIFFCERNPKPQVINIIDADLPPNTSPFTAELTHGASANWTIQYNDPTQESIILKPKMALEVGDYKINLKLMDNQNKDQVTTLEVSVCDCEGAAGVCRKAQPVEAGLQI
Protocol: as §1

[4] = target: human Thrombomodulin (Peprotech, 100-58) (human, UniProt P07204 19-515); experiment: ELISA, antigen coated at 1 ug/ml
Sequence of human Thrombomodulin (Peprotech, 100-58) (P07204 19-515 limits assumed): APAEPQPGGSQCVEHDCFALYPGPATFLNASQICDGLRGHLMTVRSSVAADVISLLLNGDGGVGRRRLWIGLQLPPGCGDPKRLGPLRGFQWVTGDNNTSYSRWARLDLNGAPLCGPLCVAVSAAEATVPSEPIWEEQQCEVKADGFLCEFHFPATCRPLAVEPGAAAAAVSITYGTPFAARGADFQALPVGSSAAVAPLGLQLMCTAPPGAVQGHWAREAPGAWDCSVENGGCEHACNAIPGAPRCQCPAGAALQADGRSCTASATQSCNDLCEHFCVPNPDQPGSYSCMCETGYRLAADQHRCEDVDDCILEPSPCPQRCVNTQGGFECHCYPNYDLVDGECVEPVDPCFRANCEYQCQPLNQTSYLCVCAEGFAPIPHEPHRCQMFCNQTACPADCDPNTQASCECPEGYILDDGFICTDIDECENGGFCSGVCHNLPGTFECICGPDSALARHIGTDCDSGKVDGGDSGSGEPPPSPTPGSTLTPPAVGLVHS
Protocol: as §1

[5] = target: T4, human MSLN-His-Avi (human, UniProt Q13421 296-598, single biotin (BirA) in the biotinylated form); experiment: competition ELISA: mAb pre-mixed with biotinylated hMSLN-His-Avi, binding to coated MUC16 (competitor)
T4 construct: Monomeric, made in HEK293-6E; Used both immobilised and in solution; also called hMSLN-His-Avi; biotinylated hMSLN-His-Avi
T4 sequence (Q13421 other isoform, or with tags, fused parts or gaps): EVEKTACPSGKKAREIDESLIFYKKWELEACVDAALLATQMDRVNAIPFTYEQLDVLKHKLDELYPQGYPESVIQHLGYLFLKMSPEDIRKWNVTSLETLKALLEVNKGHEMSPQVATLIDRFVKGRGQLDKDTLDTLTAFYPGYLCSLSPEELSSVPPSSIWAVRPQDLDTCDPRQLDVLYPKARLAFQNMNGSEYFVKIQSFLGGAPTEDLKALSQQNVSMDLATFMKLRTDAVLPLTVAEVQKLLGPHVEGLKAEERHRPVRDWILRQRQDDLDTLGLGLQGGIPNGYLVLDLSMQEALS
Protocol: Plates were washed 3 times with 1× PBS and blocked with 300 μl PBS containing 2% Tween20 and 2% Marvel Milk. A concentration of anti-MSLN mAbs (0.23 nM to 500 nM, 3-fold dilutions) were pre-mixed with biotinylated hMSLN-His-Avi antigen (final concentration 2 μg/ml) in a volume of 100 μl for 1 hr at room temperature. After removal of the blocking solution, the mAb/MSLN mixture was added to the plates and incubated for 1 hr at room temperature. Plates were washed 3 times with PBST (1× PBS and 0.05% Tween20) and incubated with streptavidin-HRP (Thermo Scientific, 21126, 1:1000 dilution in 1× PBS) for 1 hr at room temperature. Finally, plates were washed 3 times with PBST and 3 times with PBS. […] Absorbances were read at 450-630 nm (Gen5 software, BioTek).

B1: G1-AA/FS28-024 (antibody, human IgG1, kappa, L234A L235A, V domains shown)
VH: EVQLLESGGGLVQPGGSLRLSCAASGFTLSYSSMSWVRQAPGKGLEWVSFITPSTGYTHYADSVKGRFTISRDNSKNTLYLQMNSLRAEDTAVYYCARRALTFDYWGQGTLVTVSS
VL: EIVLTQSPGTLSLSPGERATLSCRASQSVSSSYLAWYQQKPGQAPRLLIYGASSRATGIPDRFSGSGSGTDFTLTISRLEPEDFAVYYCQQASSYPLTFGQGTKVEIKR
notes: Complete human IgG1 with LALA mutation; also called FS28-024 mAb (in G1-AA format)
binding result [1]: no binding (tested: 1000 nM) | binding result [2]: no binding (tested: 1000 nM) | binding result [3]: no binding (tested: 1000 nM) | binding result [4]: no binding (tested: 1000 nM) | IC50 [5]: 2.9 nM

B2: G1-AA/FS28-026 (antibody, human IgG1, kappa, L234A L235A, V domains shown)
VH: EVQLLESGGGLVQPGGSLRLSCAASGFTFSNYAMTWVRQAPGKGLEWVSSITPYYSKTDYADSVKGRFTISRDNSKNTLYLQMNSLRAEDTAVYYCARNWYRFDYWGQGTLVTVSS
VL: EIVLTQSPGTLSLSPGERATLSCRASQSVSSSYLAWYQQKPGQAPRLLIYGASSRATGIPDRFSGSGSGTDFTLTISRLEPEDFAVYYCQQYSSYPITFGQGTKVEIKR
notes: IgG1 LALA; also called FS28-026 mAb (in G1-AA format)
binding result [1]: no binding (tested: 1000 nM) | binding result [2]: no binding (tested: 1000 nM) | binding result [3]: no binding (tested: 1000 nM) | binding result [4]: no binding (tested: 1000 nM) | IC50 [5]: 5.2 nM

B3: G1-AA/FS28-091 (antibody, human IgG1, kappa, L234A L235A, V domains shown)
VH: EVQLLESGGGLVQPGGSLRLSCAASGFTFTNYAMSWVRQAPGKGLEWVSSIKPYDGNTYYADSVKGRFTISRDNSKNTLYLQMNSLRAEDTAVYYCARNRWVFDYWGQGTLVTVSS
VL: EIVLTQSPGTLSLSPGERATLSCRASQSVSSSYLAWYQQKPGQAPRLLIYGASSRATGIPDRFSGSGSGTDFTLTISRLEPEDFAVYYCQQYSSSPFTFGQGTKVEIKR
notes: IgG1 LALA; also called FS28-091 mAb (in G1-AA format)
binding result [1]: no binding (tested: 1000 nM) | binding result [2]: no binding (tested: 1000 nM) | binding result [3]: no binding (tested: 1000 nM) | binding result [4]: no binding (tested: 1000 nM) | IC50 [5]: 4.4 nM
